These results are taken from article PMC12828769.

For the assay, the target named is Human Angiotensin-converting enzyme 2 (ACE2) (human). The experiment in a line: MST; Monolith NT.115, standard glass capillaries; ACE2 labelled with NT-647 (NHS ester); ACE2 serially diluted across 16 tubes in 10 mM phosphate buffer pH 7.4, mixed 1:1 with RBDs or RBDdopa's, 15 min at RT; 40-60% MST power; apparent KD.

pKd: −log10 of the molar value.

By pKd is commonly meant the Kd on a negative log10 scale, so that one unit is a factor of ten. For “Native SARS-CoV-2 RBD (Arg319-Phe541) without any mutation (domain or fragment; other documents disagree on this pair)”, the pKd is 5.27.
